Data: US20200277373A1, “ANTI-TREM2 ANTIBODIES AND METHODS OF USE THEREOF” (Denali Therapeutics Inc., priority 2017, published 2020)
Positions count from the first letter of the chain named. One block for each molecule: values may come before it.

Tests used:
soluble TREM2 (sTREM2) = target: T1, soluble TREM2 (sTREM2) (Homo sapiens, UniProt Q9NZC2); assay: Soluble TREM2 (TREM2 shedding) assay in HEK293 TREM2/DAP12 cells; format: cell-based; set-up: key to STREM2: NC = no change; −− = reduced sTREM2; ++ = increased sTREM2; conditions: for STREM2: change in sTREM2 levels
T1 construct: expressed in transfected cells
T1 sequence (O43914 22-113 partner, one chain of several): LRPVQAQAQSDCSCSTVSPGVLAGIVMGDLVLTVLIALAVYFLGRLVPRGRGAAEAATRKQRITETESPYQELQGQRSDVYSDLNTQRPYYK
Procedure: HEK293 cells stably expressing human TREM2 and DAP12 were plated onto 96-well plates pre-coated with poly-D-lysine 4-16 hours prior to antibody treatment. Antibody supernatants or control antibodies were diluted into fresh complete media and added onto cells in triplicate. Cells were incubated with antibody containing media for 18 hours prior to removal of the cell supernatant for assay by TREM2 ELISA. Samples and standards were diluted 1:10 into blocking buffer (3% BSA/TBST) in the assay plate. Briefly, MSD small spot streptavidin plates were coated with biotinylated anti-hTREM2 polyclonal antibody (R&D Systems) overnight at 4° C. or 1 hour at room temperature. Plates were then blocked overnight at 4° C., or 1 hour at room temperature, with blocking buffer, 3% BSA/TBST. Plates were washed three times with TBST in a Biotek plate washer (used for all washes) prior to addition of diluent (blocking buffer) and denatured supernatants from cell culture. A TREM2-His protein diluted in 3% BSA/TBST was used as a standard for absolute quantification. Following 1 hour incubation at room temperature, plates were washed with TBST. The primary detection antibody, sulfo-tagged goat anti-human TREM2 (R&D Systems), diluted in 3% BSA/TBST was added and incubated for 1 hour at room temperature. After washing with TBST, MSD plates were developed using 2×MSD read buffer T, followed by detection using an MSD Sector plate reader. MSD values were converted to absolute quantities of sTREM2 by fitting a standard curve using Prism 7.0 software (Graphpad). Modulation of TREM2 shedding was represented as a ratio to cells cultured with no specific TREM2 antibody in the media.

TREM2 [1] = target: T2, TREM2 (Homo sapiens, UniProt Q9NZC2); assay: TREM2 pSyk antagonist assay on human macrophages (antibody pre-incubation, then liposomes); format: cell-based; conditions: FIGS. 9C-9D, 30 nM antibody
T2 construct: macrophage cells that endogenously express TREM2; endogenous in cells; host or cells: primary human monocyte-derived macrophages from donor blood
T2 sequence (Q9NZC2 19-230): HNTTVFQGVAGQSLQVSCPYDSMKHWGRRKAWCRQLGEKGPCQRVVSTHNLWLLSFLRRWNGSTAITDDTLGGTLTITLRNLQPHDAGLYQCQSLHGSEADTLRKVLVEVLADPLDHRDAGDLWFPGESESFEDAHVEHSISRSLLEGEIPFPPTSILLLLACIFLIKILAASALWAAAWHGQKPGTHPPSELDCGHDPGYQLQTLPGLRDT
Procedure: (§1) Human macrophages were differentiated from donor blood using a human monocyte enrichment cocktail (Stem Cell Technologies) and culturing monocytes with human mCSF for five days in macrophage media (RPMI+10% Hyclone FBS+Glutamax+Pen/Strep+non-essential amino acids+sodium pyruvate). On the fifth day, the human macrophages were scraped from the flasks and were re-plated at 100,000 cells/well on a 96-well poly-D-lysine-coated plate in the macrophage media (without mCSF). The cells were incubated for 24 hours to adhere, then the media was removed.
Antibodies diluted in RPMI alone were immediately added to the cells, and allowed to incubate for 30 minutes at 37° C. The antibodies were then removed. Lipid vesicles comprised of 70% DOPC and 30% POPS (made according to the procedure for making vesicles described above) in HBSS were added to the cells and incubated […] at 37° C. The liposome/antibody solution was removed, and 35 μL lysis buffer (Cell Signaling Technologies, CST) was added using the liquid handler. The lysate was then incubated at 4° C. for 30 minutes, then either frozen at −80° C. or immediately carried forward to a pSyk AlphaLISA assay as described above.

TREM2 [2] = target: T3, TREM2 (Homo sapiens, UniProt Q9NZC2); assay: FACS binning on human TREM2-HEK cells (competition with R&D antibody); format: binding; conditions: epitope bin, 100 nM antibody
T3 construct: expressed in transfected cells
Procedure: HEK293 overexpressing human TREM2 (H6) were harvested by 0.05% trypsin and incubated at 37° C. incubator for 2 hours for surface TREM2 recovery. After incubation, cells were washed with 1×PBS and FACS buffer (PBS+0.5% BSA) with human Trustain FcX solution (Biolegend, Cat #422302) was added at a density of 10^6/mL. Cells were seeded at 100,000 cells per well in a 96-well round-bottom and incubated 20 minutes at room temperature. After incubation, anti-TREM2 antibodies (100 nM) were added to the cells and the cells were incubated for 45 minutes on ice. After incubation, rat anti-h/mTREM2-APC antibody (1:100, R&D, Cat # FAB17291A) was added to the cells, and the cells were incubated for 30 minutes on ice. After incubation, cells were washed with FACS buffer three times and resuspended in 10 μL FACS buffer, then analyzed by flow cytometry (BD FACSCanto II, San Jose, Calif.). 20,000 events were obtained for each sample. The ability to compete with R&D antibody was determined by MFI analysis compared to isotype or buffer control wells.
T3 sequence (O43914 22-113 partner, one chain of several): as the sequence (O43914 22-113 partner, one chain of several) above

hTREM2 = target: T4, hTREM2 (Homo sapiens, UniProt Q9NZC2); assay: Octet binning (competition with R&D antibody on biotinylated TREM2-His); format: binding; conditions: epitope bin, 100 nM
T4 construct: The ecto domain (residues 19-172) of TREM2 (UniProtKB—Q9NZC2); secretion signal of mouse Ig kappa chain V-III (P01661 aa 1-20) (N); made in house; host or cells: Expi293F
T4 sequence (Q9NZC2 19-172): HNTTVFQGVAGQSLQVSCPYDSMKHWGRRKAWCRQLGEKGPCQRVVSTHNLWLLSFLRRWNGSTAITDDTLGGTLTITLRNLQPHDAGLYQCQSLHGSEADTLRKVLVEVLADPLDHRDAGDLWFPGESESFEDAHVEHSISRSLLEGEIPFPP
Procedure: Competition with R&D antibody was done by Octet Red using biotinylated human Trem2-His protein generated in house. Biotinylated human TREM2-His protein was captured on a streptavidin tip, and the tip was then incubated in either 100 nM of R&D Ab or buffer for 3 minutes, followed by incubation for 3 minutes in 100 nM of testing hybridoma. The difference of hybridoma binding curve with or without pre-binding to R&D antibody was analyzed to determine the epitope.

human macrophages [3] = assay: Signaling pathway Alpha-LISA (pSYK, pERK1/2, pGSK3-beta, pAKT) in human macrophages; format: cell-based; conditions: 15 minutes
Procedure: Anti-TREM2 antibodies were characterized for activation of several signaling pathways, SYK, ERK1/2, AKT and GSK3-beta. Human macrophages differentiated from peripheral monocytes were plated in 96-well plates at a density of 100,000 cell/well. The assay was tested in three conditions (0%, 0.5%, and 10% FBS in the media) for 3 hours. Cells were stimulated with the antibody RS9.F6, 24B4.A1, 8A11.B1, 3D3.A1, 54C2.A1, isotype control IgG2ak, rat anti-TREM2 from R&D, isotype control rat IgG2b, or no treatment (NT) for 15 minutes. The cell lysates were measured for p-Y525/526-SYK, p-T202/Y204-ERK1/2, p-S9-GSK3-beta, and p-S473-AKT using Alpha-LISA kits (Perkin Elmer). […] The antibodies stimulated p-GSK signal moderately (FIG. 6C).

human macrophages [4] = assay: Cell survival assay, human monocyte-derived macrophages, restricted or no M-CSF, CellTiter Glo; format: cell-based; conditions: plate coated antibody, 5 ng/mL or no M-CSF, day 6
Procedure: TREM2 can support microglia energy homeostasis (Ulland et al., Cell, 2017, 170:649-663). […] To understand if enhancing TREM2 activity with TREM2 agonistic antibodies is sufficient for macrophage/microglia survival under limited M-CSF conditions, human macrophage differentiation and survival studies were performed using antibodies as described herein. Human monocytes isolated from peripheral blood were incubated with 5 ng/mL M-CSF in the presence of titrated concentrations of plate coated TREM2 antibodies or isotype controls. On day 6 cell viability was determined by CellTiter Glo viability assay.

TREM2 [5] = target: T2, TREM2; assay: TREM2 PAM/pSyk assay on human macrophages; format: cell-based
Procedure: as §1
Antibodies pre-mixed with lipid vesicles comprised of 70% DOPC and 30% POPS (made according to the procedure for making vesicles described above) diluted in HBSS were immediately added to the cells, and allowed to incubate for 5 minutes at 37° C. The liposome/antibody solution was removed, and 35 μL lysis buffer (Cell Signaling Technologies, CST) was added using the liquid handler. The lysate was then incubated at 4° C. for 30 minutes, then either frozen at −80° C. or immediately carried forward to a pSyk AlphaLISA assay as described above. […] The results of the assay are shown in FIG. 9B and in Table 8 below.

B1: 26D2.D1: anti-TREM2 antibody clone; VH SEQ ID NO:16, VL SEQ ID NO:27 (antibody, V domains shown)
VH: EVQLQQSGPELVKPGASVKMSCKASGYTFTSYVMHWVKQKPGQGLEWIGYINPYTDGTKYNEKFKGKATLTSDKSSSTAYMDLSSLTSEDSAVYYCARGEVRRYALDYWGQGTSVTVSS
VL: DIQMTQSSSSFSVSLGDRVTITCKASEDIYNRLAWYQQKPGNAPRLLISGATSLETGVPSRFSGSGSGKDYTLSITSLQTEDVATYYCQQYWSTPWTFGGGTKLEIK
STREM2 (soluble TREM2 (sTREM2)): NC
liposome mediated pSyk signaling after antibody pre-incubation (TREM2 [1]): blocked
Bin by FACS (TREM2 [2]): 3
Bin by Octet (hTREM2): 1-2

B4: 26E2.A3: anti-TREM2 antibody clone; VH SEQ ID NO:17, VL SEQ ID NO:28 (antibody, V domains shown)
VH: QVHLQQSGSELRSPGSSVKLSCKDFDSEVFPISYMSWIRQKPGHGFEWIGDILPSIGGRIYGVKFEDRATLDADTVSNTAYLELNSLTSEDSAIYYCARKDYGSLAYWGQGTLVTVSA
VL: DVVMTQTPLSLPVSLGDQASISCRSSQSLVHINGNTYLQWFLQKPGQSPKLLIYKVSNRFSGVPDRFSGSGSGTAFTLKISRVEAEDLGVYFCSQSTHVPYTFGGGTKLEIK
liposome mediated pSyk signaling after antibody pre-incubation (TREM2 [1]): enhanced

B5: 24B4.A1: anti-TREM2 antibody clone; VH SEQ ID NO:17, VL SEQ ID NO:28 (antibody, V domains shown)
VH: B4 VH
VL: B4 VL
STREM2 (soluble TREM2 (sTREM2)): NC
Bin by FACS (TREM2 [2]): 1
Bin by Octet (hTREM2): 1
p-SYK signal (human macrophages [3]): robust
pERK1/2 signal (human macrophages [3]): robust
survival of human macrophages (human macrophages [4]): increased the survival

B6: 7B10.A2: anti-TREM2 antibody clone; VH SEQ ID NO:306, VL SEQ ID NO:310 (antibody, V domains shown)
VH: EVQLQQSGPELVKPGASVKMSCKASGYTFTDYNMHWVKQSHGKSLEWIGYINPNNGGTTYNQKFKGKATLTVNKSSSTAYMELRSLTSEDSAVYYCATYNNHYFDSWGQGTTLTVSS
VL: DIQMTQTTSSLSASLGDRVTISCSASQGISNYLNWYQQKPDGTVKLLIYYTSNLHSGVPSRFSGSGSGTDYSLTISNLEPEDIATYYCQQYSNLPYTFGGGTKLEIK
effect on lipid ligand activation of TREM2 (in words) (TREM2 [5]; FIG. 9B, human macrophages): synergistic with lipid TREM2 activators
Slope + Liposome (TREM2 [5]; pSyk, 10 nM antibody with 0, EC20, EC50, EC80 PS/PC liposomes, liposome-alone signal subtracted): 5,370

Next, values leading:

TREM2 shedding (in words) (soluble TREM2 (sTREM2); FIG. 4, 18 hours): blocks TREM2 shedding
STREM2 (soluble TREM2 (sTREM2)): −−
Bin by FACS (TREM2 [2]): 1
Bin by Octet (hTREM2): 1
B2: 42E8.H1: anti-TREM2 antibody clone; VH SEQ ID NO:20, VL SEQ ID NO:31 (antibody, V domains shown)
VH: DVQLQESGPGLVKPSQSLSLTCTVTGYSITSDYAWNWIRQFPGNKLEWMGYINYSGRTIYNPSLKSRISITRDTSKNHFFLQLISVTTEDTATYYCARWNGNYGFAYWGQGTLVTVSA
VL: B4 VL with T7N, Q39H, F41Y, A75D, S96T, V99A, P100L, Y101F, G105S

Bin by FACS (TREM2 [2]): 1
Bin by Octet (hTREM2): 1
B3: 49H11.B1: anti-TREM2 antibody clone; VH SEQ ID NO:21, VL SEQ ID NO:32 (antibody, V domains shown)
VH: B2 VH with K45R, N53S, Y54F, R57S, I59S, H78Q, I84N
VL: B4 VL with Q39H, F41Y, A75D, P100T, Y101F, G105S

STREM2 (soluble TREM2 (sTREM2)): NC
B7: RS9.F10: anti-TREM2 antibody clone; likely VH SEQ ID NO:6, VL SEQ ID NO:7 (antibody, V domains shown)
VH: QVQLQQPGAELVKPGASVKLSCKASGYTFTSYWMHWVKQSPGRGLEWIGRSDPTTGGTNYNEKFKTKATLTVDKPSSTAYMQLSSLTSDDSAVYYCVRTSGTGDYWGQGTSLTVSSAKTTAPSVYPLAPVCGGTTGSSVT
VL: DVVMTQTPLSLPVSLGDQASISCRSSQSLVHNNGNTFLHWYLQKPGQSPKLLIYKVSNRFSGVPDRFSGSGSGTDFTLKISRVEAEDLGVYFCSQTTHVPPTFGGGTKLEIKRADAAPTVSIFPPSSEQLTSGGASVVCF
